From PMC3727933 (Molecular Biology of the Cell, 2013) come the findings set out here.

This series concerns the molecule itself. Briefly: SEC.

B1: Nwk^1-428∆tips (domain or fragment, Drosophila, UniProt X2JAU8 1-428, looked up)
chain: MQPPPRKGNYVKFLKNLHTEQVAKLQLKNQHECDLLEDIRQFTIKRSAVEKSYSESLLKISSQYLNKKIPNIPDIKMEGMEERWNMWSVWRTVLEENEKLARARLAAIEVFQQQIADEAKVLRDYKLAIAKRSLAGIVNVQKELHLSVGDVDKTKKSYFDEEHCAHDVRDKARDIEEKLKNLITSLQKNSARVTSRKELLEEKSSGARNDYVLSLAAANAHQNRYFTVDLQTTMTTMENYVFERVAEYLMLMGRTELLTCSATQNSFGKIRDQAQQLTREYNLQCCYLFYPVLKQHIQYDFEACDNDPVRKVTAEHESAAETLTKEAKNLAGRVVKENASIRENAKKLALCQSLRDSGQRTDPNDPNGPDLDTKIEEFRDQIRRSETEKTKAEACLQCLRDGGINVDEWVQEAENMGVQEL
For B1, the “stoichiometry N” value was determined as 2.
